In US9878016B2, “IGFBP-3 derivatives and uses thereof” (INSERM (Institut National de la Sante et de la Recherche …, priority 2011, dated 2018):

T1: MMP-7 (Homo sapiens, UniProt P09237)
T1 sequence (P09237 95-267): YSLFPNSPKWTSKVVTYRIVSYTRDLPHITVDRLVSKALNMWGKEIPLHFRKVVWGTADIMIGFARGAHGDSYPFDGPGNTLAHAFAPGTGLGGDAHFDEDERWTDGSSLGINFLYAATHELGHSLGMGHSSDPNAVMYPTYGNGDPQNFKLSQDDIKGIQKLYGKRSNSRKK

B1: mini-IGFBP-3-Fc: Immunoadhesin fusion protein joining mini-IGFBP-3 to the Fc fragment of human IgG1 (protein)
chain: GASSAGLGPVVRCEPCDARALAQCAPPPAVCAELVREPGCGCCLTCALSEGQPCGIYTERCGSGLRCQPSPDEARPLQALLDGRGLCVNASAVSGGGSGGSGGSGGSGGETEYGPCRREMEDTLNHLKFLNVLSPRGVHIPNCDKKGFYKKKQCRPSKGRKRGFCWCVDKYGQPLPGYTTKGKEDVHCYSMQSK
modifications: left off: a dimerising Fc or GST
notes: Immunoadhesin fusion protein joining mini-IGFBP-3 to the Fc fragment of human IgG1

How the values were obtained:
[1] = molecular target: IGF-I (Homo sapiens, UniProt P05019); assay: Affinity for IGF-I: competition with 125I-IGF-1 tracer, Scatchard analysis; assay type: binding; details: association constant, IGF-I competitor
Description: (§1) The affinity of wild type (wt) IGFBP-3 and of mutated IGFBP-3 (mini-IGFBP-3) for IGF-I and IGF II was determined using ^125I-IGF-1 as a radioactive tracer. Various concentrations of IGF-I and IGF-II were used as competitors and affinity constants were determined by Scatchard analysis.

[2] = molecular target: T2, IGF-II (Homo sapiens, UniProt P01344); assay: Affinity for IGF-II: competition with 125I-IGF-1 tracer, Scatchard analysis; assay type: binding; details: association constant, IGF-II competitor
T2 construct: before undergoing regulated endoproteolytic cleavage to the mature form (IGF-II)
Description: as §1

[3] = test system: AKT phosphorylation in A549 (lung cancer); assay: AKT phosphorylation, A549 cells; assay type: cell-based, human; details: different incubation times
Description: (§2) These effects are compared to those of ppp (see Example 5 for experimental details). FIG. 11(B) is a graph showing the effects of mini-IGFBP-3-Fc on the phosphorylation of AKT in MiaPaCa-2 cells (upper left), HT-29 cells (upper right) and A549 cells (lower left) and of […] on the phosphorylation of AKT in A549 cells (lower right) after different incubation times, as indicated (see Example 5 for experimental details).
(§3) The inhibiting activity of mini-IGFBP-3-Fc on AKT phosphorylation was also assessed in various human tumor cell lines: MiaPaCa-2 (pancreatic cancer), HT-29 (colon cancer) and A549 (lung cancer). The inhibiting activity of mini-IGFBP-3 on AKT phosphorylation was assessed A549 cells.

[4] = Decay of concentrations in mouse plasma after intravenous injection (ELISA); assay type: in vivo; details: mice, 250 μg intravenously
Description: 250 μg of the indicated protein were injected intravenously to groups (n=3) of mice at time zero. Blood samples were drawn at the indicated time points, centrifuged and kept frozen. Concentrations of injected proteins were determined by an in-house sandwich type ELISA using anti-human IGFBP-3 specific monoclonal antibodies.
To pave the ground for future assessments of mini-IGFBP-3 in vivo activity, mini-IGFBP-3 and its derivatives were injected into mice. When measured using human-specific IGFBP-3 ELISA test, several kinetics could be observed.

[5] = test system: HT-29 human colorectal tumor xenografts; assay: Tumor signalling in mice bearing HT-29 xenografts, 12 hours treatment (western immunoblots); assay type: in vivo, NMRI-nu mice; details: three i.p. injections (340 μg) every 3 hours, sacrifice at 12 hours; for Erk1/2 phosphorylation in tumors / Rb phosphorylation in tumors: vs untreated
Description: Thus, HT-29 xenografts were established in nude mice. After tumor had reached a critical size, mice were treated with either mini-IGFBP-3 or mini-IGFBP3-Fc in three i.p. injections separated by a three hours interval and mice were sacrificed after […]. Tumor MEK and PI3Kinase signalling pathways were assessed in these tumors, together with the cell cycle regulator Rb, by evaluating the phosphorylation status of AKT, ERK-1/2 and Rb, respectively, using western immunoblots.
More specifically, 2.5×10^6 HT-29 cells were injected s.c. into each flank of 5 weeks old NMRI-nu mice. Tumors were allowed to grow up to a volume of 500 mm^3 before mice were randomized into individual treatment groups (n=2) and received three i.p. injections (340 μg) of either mini-IGFBP-3 or mini-IGFBP-3-Fc every 3 hours. The control group was injected with saline. Twelve (12) hours after treatment initiation, mice were sacrificed and excised tumors were cut in half. One half was snap frozen in liquid nitrogen and stored at −80° C. The other half was fixed in Finfix, included in paraffin and processed for immuno-histochemistry. For Western blot analysis, tumors were homogenized in lysis buffer (10 mM Tris HCl at pH 7.4, 150 mM NaCl, 1% Nonidet P-40, 0.1% sodium deoxycholate, 0.1% SDS, 1 mM EDTA, 2 mM sodium orthovanadate, protease inhibitor tablet [Roche Molecular Biochemicals]). After centrifugation, protein concentrations were determined by the Bio-Rad protein assay (Bio-Rad). Fifteen micrograms of protein were run on a 4%-12% SDS-PAGE gel (Invitrogen). Membranes were blocked in 5% nonfat milk in TBS-T overnight at 4° C., washed with TBS-T, incubated with anti-mouse or anti-rabbit horseradish peroxidase-conjugated secondary antibodies in TBS-T for 1 hour at room temperature, and washed in TBS-T. The signal was visualized using an enhanced chemiluminescence solution and exposed to film. The blotting antibodies used wherein phosphor-Akt, Akt, mitogen-activated protein kinase ERK1/2, phosphor-mitogen-activated protein kinase pErk1/2, Rb (BD Biosciences), β-actin and G3PDH; antibodies were from Cell Signalling Technology unless otherwise stated.

[6] = molecular target: T1, MMP-7; assay: Proteolytic digestion by activated MMP-7 (SDS-PAGE); assay type: biochemical; details: substrate 20 μM, 1:10 molar ratio, enzyme activated with 1 mM APMA
Description: (§4) The ability of mini-IGFBP-3 to resist proteolytic digestion by Matrix Metalloproteinases, MMP-7 and MMP-9, is also currently being tested. MMP-7 and MMP-9 are expressed by tumor cells and are present in higher quantity in the bloodstream of cancer patients where they contribute to the degradation of native, endogenous IGFBP-3. In the experiments, these enzymes are first activated with 1 mM APMA. Mini-IGFBP-3 and full length IGFBP-3 are compared as substrate for activated MMP-7 and MMP-9. Concentrations of each substrate (20 μM) are incubated in a 1:10 molar ratio with either MMP-7 or MMP-9. At the end of the incubation period, proteins are analyzed by SDS-PAGE to evaluate their respective cleavage into fragments.

[7] = molecular target: MMP-9 (Homo sapiens, UniProt P14780); assay: Proteolytic digestion by activated MMP-9 (SDS-PAGE); assay type: biochemical; details: substrate 20 μM, 1:10 molar ratio, enzyme activated with 1 mM APMA
Description: as §4

[8] = molecular target: T2, IGF-II; assay: Solid-phase assay: displacement of biotinylated IGF-II tracer from immobilized binding protein; details: increasing free IGF-II
From the text: FIG. 10(A) is a graph showing the relative binding affinity of mini-IGFBP-3 and mini-IGFBP-3-Fc towards IGF-II. The solid phase assay used measured the ability of increasing concentrations of free IGF-II to displace binding of the biotinylated IGF-II tracer to mini-IGFBP-3 and mini-IGFBP-3-Fc immobilized on a support (See Example 5 for experimental details). FIG. 10(B) is a graph showing the effects of mini-IGFBP-3-Fc on proliferation and survival of three human tumor cell lines cultivated in the presence of 10% FCS: Hep3B, HuH7 and INA-6. The effects of mini-IGFBP-3-Fc are compared to the effects of picropodophyllin (ppp), a compound known to interfere with IGF-R signalling pathway (see Example 5 for experimental details).
A solid-phase assay was used to study the binding affinity of mini-IGFBP-3-Fc for IGF-II. In this assay, two binding proteins (mini-IGFBP-3 and mini-IGFBP-3-Fc) were immobilized to a support. They were incubated with the biotinylated IGF-II tracer, and then increasing concentrations of IGF-II were added.

[9] = test system: Hep3B; assay: Cell viability assay (WST-1), Hep3B; assay type: cell-based, human; details: 100 nM, 72 hours, 10% FCS
Description: (§5) The effects of mini-IGFBP-3-Fc on the proliferation and survival of three human tumor cell lines, Hep3B and HuH7—hepatocellular carcinoma cell lines) and INA-6 (multiple myeloma cell line), were studied. For each cell line cultivated in the presence of 10% fetal calf serum (FCS), the effect of mini-IGFBP-3-Fc were compared to the effect picropodophyllin (ppp), a compound known to interfere with the IGF1-R signalling pathway. A cell viability assay was performed 72 hours after initiation of the culture in the presence of mini-IGFVP-3-Fc (100 nM) or ppp (1 μM) in a medium containing 10% FCS by adding WST-1 and monitoring formazan conversion.

[10] = test system: HuH7; assay: Cell viability assay (WST-1), HuH7; assay type: cell-based, human; details: 100 nM, 72 hours, 10% FCS
Description: as §5

[11] = test system: INA-6; assay: Cell viability assay (WST-1), INA-6; assay type: cell-based, human; details: 100 nM, 72 hours, 10% FCS
Description: as §5

[12] = test system: phosphorylation of AKT in INA-6 myeloma cells; assay: AKT phosphorylation, INA-6 myeloma cells (western blot); assay type: cell-based; details: 100 nm; 3, 6 or 24 hours; 10% FCS
Description: The INA-6 myeloma cell line was grown in the presence of 10% FCS. The cells were incubated with mini-IGFBP-3 (100 nm) or ppp (1 μM) 3, 6 or 24 hours. After incubation, the cells were lysed using a lysis buffer, and cell extracts (normalized for protein contents) were loaded on SDS-PAGE gel, transferred onto nitrocellulose membrane, which was further incubated with a monoclonal antibody directed against the […] residue of the AKT protein. The membrane was also re-probed after stripping with an anti-actin antibody to check for equal loading.

[13] = test system: AKT phosphorylation in MiaPaCa-2 (pancreatic cancer); assay: AKT phosphorylation, MiaPaCa-2 cells; assay type: cell-based, human; details: different incubation times
Description: as §2, §3

[14] = test system: AKT phosphorylation in HT-29 (colon cancer); assay: AKT phosphorylation, HT-29 cells; assay type: cell-based, human; details: different incubation times
Description: as §2, §3

T2 sequence (P01344 25-91 limits assumed): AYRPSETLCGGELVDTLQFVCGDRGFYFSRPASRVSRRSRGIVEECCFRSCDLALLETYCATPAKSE
Sequence of MMP-9 (P14780 107-707 limits assumed): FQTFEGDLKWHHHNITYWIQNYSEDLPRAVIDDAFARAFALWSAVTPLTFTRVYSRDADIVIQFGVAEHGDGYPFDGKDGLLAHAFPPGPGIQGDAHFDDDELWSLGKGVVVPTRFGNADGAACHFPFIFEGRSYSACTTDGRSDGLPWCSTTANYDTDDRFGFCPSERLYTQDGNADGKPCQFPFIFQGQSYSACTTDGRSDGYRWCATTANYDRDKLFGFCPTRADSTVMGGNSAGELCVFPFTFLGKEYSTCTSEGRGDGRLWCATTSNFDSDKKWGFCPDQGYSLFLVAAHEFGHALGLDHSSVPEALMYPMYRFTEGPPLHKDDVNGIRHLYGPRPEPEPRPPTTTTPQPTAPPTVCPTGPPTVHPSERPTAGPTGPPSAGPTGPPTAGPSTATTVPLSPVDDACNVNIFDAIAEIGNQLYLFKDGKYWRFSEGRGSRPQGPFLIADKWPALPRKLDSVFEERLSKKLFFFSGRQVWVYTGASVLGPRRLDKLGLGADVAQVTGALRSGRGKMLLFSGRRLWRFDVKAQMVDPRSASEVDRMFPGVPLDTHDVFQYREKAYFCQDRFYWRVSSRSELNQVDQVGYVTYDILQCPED
Sequence of IGF-I (P05019 49-118 limits assumed): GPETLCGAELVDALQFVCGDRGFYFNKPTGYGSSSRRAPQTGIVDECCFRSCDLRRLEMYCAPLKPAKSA

Molecule	affinity constant for IGF-I [1]	affinity constant for IGF-II [2]	AKT phosphorylation in A549 cells [3]	fraction of the initial dose that left the bloodstream in the first 3-4 hours [4]	remaining fraction that disappeared very slowly until 48 hours [4]	AktS473 phosphorylation in tumors [5]	mitotic index compared to untreated tumors [5]	Erk1/2 phosphorylation in tumors [5]	Rb phosphorylation in tumors [5]	cleavage by MMP-7 [6]	cleavage by MMP-9 [7]	apparent affinity for IGF-II compared with unfused mini-IGFBP-3 [8]	proliferation and survival of Hep3B [9]	proliferation and survival of HuH7 [10]	proliferation and survival of INA-6 [11]	phosphorylation of AKT in INA-6 cells [12]	AKT phosphorylation in MiaPaCa-2 cells [13]	AKT phosphorylation in HT-29 cells [14]	half-life of serum concentration ([4]; single slope kinetics)
mini-IGFBP-3: Human IGFBP-3 mutein: 85 central-domain residues (95 to 179) replaced by 15 amino acid spacer GGGSGGSGGSGGSGG (SEQ ID NO: 4)	2.4e+10 M⁻¹	3.14e+10 M⁻¹	able to block the AKT phosphorylation	80-90%	10-20%	abolished	−12%	considerably decreased	decreased	resists this proteolytic attack	resists this proteolytic attack	–	–	–	–	–	–	–	–
wt IGFBP-3: Recombinant wild type human IGFBP-3 with hexahistidine N-terminal extension, comparator [reference compound]	2.96e+10 M⁻¹	3.5e+10 M⁻¹	–	–	–	–	–	–	–	digested	digested	–	–	–	–	–	–	–	–
B1	–	–	able to block the AKT phosphorylation	–	–	abolished	−12%	considerably decreased	decreased	–	–	higher apparent affinity	anti-proliferative activity	anti-proliferative activity	anti-proliferative activity	inhibiting effects	able to block the AKT phosphorylation	able to block the AKT phosphorylation	about 12 hours
